How the values were obtained:
[1] = target: T1, hRSV FTM-NN (membrane anchorless form of the Long fusion protein, 70 kDa) (human respiratory syncytial virus, …, UniProt P12568 26-524); assay: competition ELISA on FTM-NN, competitor 101F Fab, purified Nanobody
T1 construct: also called FTM-NN (Long); hRSV FTM-protein

[2] = target: T1, hRSV FTM-NN (membrane anchorless form …); assay: ELISA on immobilized FTM-NN, periplasmic extract 1:10
[3] = target: T2, protein F of hRSV strain B-1 (on RSV B-1-infected Hep2 cells and on virus) (human respiratory syncytial virus, …, UniProt P13843 26-574); assay: cell ELISA on RSV B-1-infected Hep2 cells, periplasmic extract 1:50
[4] = target: T2, protein F of hRSV strain B-1 (on RSV …); assay: cell-based or functional assay
[5] = target: T2, protein F of hRSV strain B-1 (on RSV …); assay: cell ELISA on RSV B-1-infected Hep2 cells, periplasmic extract 1:200
[6] = target: protein F of hRSV strain Long, on virus (inactivated hRSV Long, Hytest #8RSV79; RSV Long LM-2, ATCC VR-26) (human respiratory syncytial virus, …, UniProt P12568 26-574); assay: cell-based or functional assay
[7] = target: T2, protein F of hRSV strain B-1 (on RSV …); assay: cell-based or functional assay; remark: listed apart in the source
[8] = target: T1, hRSV FTM-NN (membrane anchorless form …); assay: SPR (Biacore), FTM-NN amine-coupled on CM5 chip, 1:1 Langmuir fit
[9] = target: T1, hRSV FTM-NN (membrane anchorless form …); assay: competition ELISA on FTM-NN, competitor Synagis Mab, purified Nanobody

Binder	IC50 [1] [µM]	Binding Long 1:10 PE (Fold blanc) [2] [fold blanc]	Binding Hep2-B-1 (% control) 1:50 PE [3] [% control]	Neutralization B-1 IC50 [4] [µM]	Binding Hep2-B-1 (% control) 1:200 PE [5] [% control]	Neutralization Long IC50 [6] [µM]	micro-neutralization of RSV B-1 [7] [µM]	Kd [8] [µM]	koff [8] [s⁻¹]	kon [8] [M⁻¹ s⁻¹]	IC50 [9] [µM]
Nanobody 13D1 (VHH, also called PMP13D1; PRSV13D1) VHH: EVQLVESGGGLVQPGGSLRLSCATSGFTEDYYVIGWFRQAPGKEREGVSCMSSSGDSTTYADSVKGRFTISRDNAKNMVYLQMTSLKPEDTAVYYCAADFALGCYSGSYYPRYDYWGQGTQVTVSS	0.00337	3.1	93	5.85	75						
Nanobody 1G8 (VHH, also called PMP1G8; PRSV1G8) VHH: EVQLVESGGGSVQAGGSLRLSCAASGGSFNRFGMGWFRRAPGKERDFVAAINLSGDTTYYVDSVQGRFTISRDNANNIMYLQMNLLKPEDTADYYCAADPDPITAWKQSGAGMDYWGKGTQVTVSS		3.7	73	> 10	43	10	> 10				
Nanobody 13A1 (VHH, also called PMP13A1; PRSV13A1) VHH: EVQLVESGGGLVQPGGSLRLSCAASGLTLDYYALGWFRQAPGKEREGVSCISSADHSTTYADSVKGRFTISWDNAKNTVYLQMNSLKPEDTAVYYCAADPALGCYSGNYYPRYDYWGQGTQVTVSS	0.00423	2.9	84	6.16	65			0.00061	0.00035	570000	
Nanobody 19E2 (VHH, also called PMP19E2; PRSV19E2) VHH: EVQLVESGGGLVQPGGSLRLSCAASGLTLDYYALGWFRQAPGKEREGVSCISSSDHTTTYTDSVKGRFTISWDNAKNTLYLQMNSLKPEDTAVYYCAADPALGCYSGSYYPRYDFWGQGTQVTVSS	0.00293	3.5	87	4.55	58			0.00052	0.00024	460000	
Nanobody 1A2 (VHH, also called PMP1A2; PRSV1A2) VHH: EVQLVESGGGLVQAGGSLRLSCAASERTFSYYAMGWFRQAPGKEREFVATISRSGEWIYYKDAMKGRFTISRDNANNAVYLQMNSLQPEDTAIYYCAADSLGGFRSASDYYNTNTYAYWGQGTQVTVSS	0.0029	4	86	13.7	66						
Nanobody 13E12 (VHH, also called PMP13E12; PRSV13E12) VHH: EVQLVESGGGLVQAGGSLRLSCAASGRTFSRYIMGWFRQAPGKEREFVGAISRSGDITSFADFVKGRFTMSRDNAKNTLYLQMNSLEPEDTAVYSCAANSDTYYIYSDIVVPERYDYWGQGTQVTVSS	0.00352	3.7	97	12.3	75			0.0015	0.00016	110000	
Nanobody 20C1 (VHH, also called PMP20C1; PRSV20C1) VHH: EVQLVESGGGLVQAGGSLRLSCAASGRTFSSFAMGWFRQAPGKEREFVAAISWSGGSTYYADSVKGRFTISGDNAKNTMYLQMNSLKPEDTAVYYCAADSEILNSGAYYYPWAYVYWGQGTQVTVSS		2.7	37	> 10	35	5.29	> 10				
Nanobody 1A6 (VHH, also called PMP1A6; PRSV1A6) VHH: EVQLVESGGGLVQAGGSLRLSCAASGRTFSSYAMGWFRQAPGKEREFVAAIWWSGGSTYYADSVKGRFTMSRDNAKNTVYLEMNNLKPEDTAVYYCAADTDSSNSGSYLYTWAYDYWGQGTQVTVSS		4.2	57	> 10	39	4.5	> 10				
Nanobody 19C4 (VHH, also called PMP19C4; PRSV19C4) VHH: EVQLVESGGGLVQAGGSLRLSCAASGRSFSNYVLGWFRQAPGKEREFVAAISFRGDSAIGAPSVEGRFTISRDNAKNTGYLQMNSLVPDDTAVYYCGAGTPLNPGAYIYDWSYDYWGRGTQVTVSS		2.5	72	> 10	50	0.332	> 10				0.209
